Where a chain is given by its changes, count along the chain named. Read-outs that look alike come from different tables or passages of the source.
Columns and labels:
SEC [1] = target: the molecule itself; experiment: SEC
SEC [2] = target: the molecule itself; experiment: SEC; remark: listed apart in the source

B1: CmDnm1 (native), mitochondrial fission dynamin from Cyanidioschyzon merolae (natural protein, UniProt Q84Y91 1-768, looked up)
chain: MERLIPIVNKLQDLFAETGLDSPIDLPQIMVVGAQSSGKSSVLENVVGESIFPRGTGIVTRRPIVVQLYCTARERLNQSGAPDNMFNEDGSYVLSDGAPTDPRSIPPGAENQAYAEFLHKPGVRFYNFDDVRAEIERETDRVTGKNKGISPKAINLRVYSPHVVNLTVVDLPGLTKVPVGDQPSDIERLIRAMVLSYIERPNAIILAVHPATMDLATSDALQIARQADPEGRRTLGVITKLDLMDKGTDAMEMLTGKVIPLKLGYIGVICRGPADLRAGKSIQQAREDEIRFFRSHPVYRRLLPQLGTNTLARTLSTLLMKHIRDTLPSIRQKMSQQLAEWRKELQTLGPAFEGADDLGGALLNVINRYSSEFAKSLEGNSQQTVNTQELYGGARINYIFNDIYAKELQSMNAFEGLTREDIRTAIRNATGHRSPLFVPELAFELLVKKQITHFVPPAYSCVDLVYDELVRLALNCETELLQRYENLRSEILACAQNLLRELKQPCLEMVQNLIAMETSYISVNHKDFIGGNKAMSQLVRARMEEEERRTRSAKAANSTDNAANSAPKESNANDNRILQPRRRNQDENAKKNDDARRKDDKSPNKTDASNAEKDARSDRNPRGDPTMDNFFNEADEDEEDGNERRNRGLHTLPSVPEHLKAGEVSSDRDRDDIELIQTLLASYFDVVRVNMMDMVPKAIMSFLVLRARDRMQSRLVADLYKPERMSELLNESSDVAERRATAKRMVDLLQRGMAVINEVRDVHVKEEI
With B1 the “stoichiometry N” value (SEC [1]) was 4.

B2: CmDnm1 GHRS431-434AAAA, self-assembly limiting stalk mutant (natural protein, Cyanidioschyzon merolae, UniProt Q84Y91 1-768, looked up)
chain: B1 chain with G431A, H432A, R433A, S434A
With B2 the “stoichiometry N” value (SEC [2]) was 4.

— paper PMC6104806 (Nature structural & molecular biology, 2018)
